Biological target: C-terminal sRL91 (N-terminal SH2 domain SH2n of p85 subunit of bovine phosphatidylinositol 3-kinase fused … (bovine (SH2n part)))
Assay: cell-based or functional assay

Chain of C-terminal sRL91 (N-terminal SH2 domain SH2n of p85 subunit of bovine phosphatidylinositol 3-kinase fused … (bovine (SH2n part))) (chain, as listed by the source limits assumed): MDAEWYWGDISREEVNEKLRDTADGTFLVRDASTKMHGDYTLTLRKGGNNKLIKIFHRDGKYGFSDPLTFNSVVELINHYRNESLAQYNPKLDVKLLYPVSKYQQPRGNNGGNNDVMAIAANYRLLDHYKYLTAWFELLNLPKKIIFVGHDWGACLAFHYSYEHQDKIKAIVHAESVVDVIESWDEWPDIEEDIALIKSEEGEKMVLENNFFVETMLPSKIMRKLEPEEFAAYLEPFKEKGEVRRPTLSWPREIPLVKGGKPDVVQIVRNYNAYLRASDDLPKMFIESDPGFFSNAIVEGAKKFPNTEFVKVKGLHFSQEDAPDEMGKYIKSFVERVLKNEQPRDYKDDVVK

B1: N-terminal sRL91 (N-split Renilla luciferase hRLn, split between Ser91 and Tyr92, fused through a linker to Y941 peptide, with Myc epitope) (other, not shown: small tags and cut ends)
chain: MTSKVYDPEQRKRMITGPQWWARCKQMNVLDSFINYYDSEKHAENAVIFLHGNAASSYLWRHVVPHIEPVARCIIPDLIGMGKSGKSGNGSCLSLASNNGNGRNGASLETEEAYMKMDLGPG
modifications: the 941-tyrosine residue of the Y941 peptide is phosphorylated by the insulin receptor upon insulin stimulation
  luminescence activity with 10^-7 M insulin against its absence (split Renilla luciferase complementation, CHO-HIR cells expressing sRL91): 25 fold

From patent US20070022484A1 (published 2007)
